# Results reported in PMC10237660.
# Molecular target: C-terminal polyP binding domain of the E. coli exopolyphosphatase (EcPPXc) (E. coli strain K12)
# Experiment: SEC; analytical SE-UPLC, BEH200 4.6 x 300 mm column (Waters), running buffer 10 mM NaH2PO4, 400 mM (NH4)2SO4, pH 6.2; retention time compared with 158 kDa and 44 kDa standards
substance,measurement,value
C-terminal polyP binding domain of the E. coli exopolyphosphatase (EcPPXc) (domain or fragment),stoichiometry N,2
